Results as given in patent EP4740964A1, “NANO DELIVERY SYSTEM, PREPARATION METHOD THEREFOR AND USE THEREOF” (Chen, Haiyan, priority 2023, dated 2025).

T1: CD19 on the surface of Raji cells (UniProt P15391 20-556, limits assumed)
T1 construct: whole, on cells; also called antigen CD19
T1 sequence (looked up): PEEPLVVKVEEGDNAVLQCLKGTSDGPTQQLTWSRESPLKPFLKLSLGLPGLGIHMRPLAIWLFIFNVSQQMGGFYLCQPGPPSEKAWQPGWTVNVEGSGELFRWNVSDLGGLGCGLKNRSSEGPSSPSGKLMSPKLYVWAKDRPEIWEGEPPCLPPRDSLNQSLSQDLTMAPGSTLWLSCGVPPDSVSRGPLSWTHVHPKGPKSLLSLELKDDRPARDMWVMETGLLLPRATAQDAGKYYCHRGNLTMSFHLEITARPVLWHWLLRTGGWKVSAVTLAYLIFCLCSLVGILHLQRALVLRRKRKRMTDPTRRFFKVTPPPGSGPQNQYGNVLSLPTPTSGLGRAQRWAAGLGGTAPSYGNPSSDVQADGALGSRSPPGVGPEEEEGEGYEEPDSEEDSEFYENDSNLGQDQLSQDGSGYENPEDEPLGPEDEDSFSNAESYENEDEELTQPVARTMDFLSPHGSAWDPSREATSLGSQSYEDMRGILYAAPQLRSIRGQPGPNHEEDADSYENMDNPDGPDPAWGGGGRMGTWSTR

B1: CD19 IgG antibody (antibody, V domains shown)
VH: QVQLVQSGAEVKKPGSSVKVSCKASGYAFSSYWMNWVRQAPGQGLEWMGQIWPGDSDTNYAQKFQGRVTITADESTSTAYMELSSLRSEDTAVYYCARRETTTVGRYYYAMDYWGQGTTVTVSS
VL: DIQLTQSPSFLSASVGDRVTITCKASQSVDYSGDSYLNWYQQKPGKAPKLLIYDASNLVSGVPSRFSGSGSGTEFTLTISSLQPEDFATYYCQQSTENPWTFGGGTKLEIKR
B2: CD19 antibody antigen-binding fragment Fab (Fab, V domains shown)
VH: B1 VH
VL: B1 VL
notes: also called CD19 Fab
B3: CD22 IgG antibody (antibody, V domains shown)
VH: EVQLVQSGAEVKKPGASVKVSCKASGYRFTNYWIHWVRQAPGQGLEWIGGINPGNNYATYRRKFQGRVTMTADTSTSTVYMELSSLRSEDTAVYYCTREGYGNYGAWFAYWGQGTLVTVSS
VL: DVQVTQSPSSLSASVGDRVTITCRSSQSLANSYGNTFLSWYLHKPGKAPQLLIYGISNRFSGVPDRFSGSGSGTDFTLTISSLQPEDFATYYCLQGTHQPYTFGQGTKVEIKR

Experiments:
[1] = biological target: T1, CD19 on the surface of Raji cells; assay: flow cytometry on Raji cells, Alexa Fluor 488 anti-human IgG detection
[2] = biological target: T2, CD22 on the surface of Raji cells (UniProt P20273 20-847, limits assumed); assay: as above
T2 construct: whole, on cells; also called antigen CD22

Binder	binding result [1]	binding result [2]
B1	binds	
B2	binds	
B3		binds
